Tests used:
Assay in all cases: cell-based or functional assay
[1] = biological target: ACTR variant SEQ ID NO: 10
[2] = biological target: ACTR variant SEQ ID NO: 57
[3] = biological target: ACTR variant SEQ ID NO: 58
[4] = biological target: ACTR variant SEQ ID NO: 59
[5] = biological target: ACTR variant SEQ ID NO: 60
[6] = biological target: ACTR variant SEQ ID NO: 61
[7] = biological target: ACTR variant SEQ ID NO: 62
[8] = biological target: ACTR variant SEQ ID NO: 63
[9] = biological target: ACTR variant SEQ ID NO: 7
ACTR variant SEQ ID NO: 7, sequence (chain, as listed by the source mutant limits assumed): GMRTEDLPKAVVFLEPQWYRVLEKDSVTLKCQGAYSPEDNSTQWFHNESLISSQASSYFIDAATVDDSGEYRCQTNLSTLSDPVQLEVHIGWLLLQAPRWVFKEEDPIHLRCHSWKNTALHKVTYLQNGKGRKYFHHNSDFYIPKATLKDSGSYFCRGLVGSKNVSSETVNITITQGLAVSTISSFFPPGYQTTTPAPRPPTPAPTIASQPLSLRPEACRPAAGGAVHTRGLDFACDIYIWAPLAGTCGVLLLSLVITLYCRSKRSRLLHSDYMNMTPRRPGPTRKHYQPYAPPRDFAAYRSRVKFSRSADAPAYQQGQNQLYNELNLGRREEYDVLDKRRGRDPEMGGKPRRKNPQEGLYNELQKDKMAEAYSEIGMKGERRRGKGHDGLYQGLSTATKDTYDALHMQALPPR

ACTR variant SEQ ID NO: 58, sequence (chain, as listed by the source mutant): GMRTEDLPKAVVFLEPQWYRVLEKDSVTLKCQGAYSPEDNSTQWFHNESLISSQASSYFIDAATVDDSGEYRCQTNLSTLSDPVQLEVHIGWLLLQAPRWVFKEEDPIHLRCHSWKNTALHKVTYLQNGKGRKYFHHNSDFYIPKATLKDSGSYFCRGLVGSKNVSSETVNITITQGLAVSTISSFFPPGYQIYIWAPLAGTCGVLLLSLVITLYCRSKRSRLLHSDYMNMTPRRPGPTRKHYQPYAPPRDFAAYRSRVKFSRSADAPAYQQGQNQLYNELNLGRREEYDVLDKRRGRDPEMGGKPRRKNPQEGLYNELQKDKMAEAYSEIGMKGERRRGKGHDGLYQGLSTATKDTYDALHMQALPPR
ACTR variant SEQ ID NO: 59, sequence (chain, as listed by the source mutant limits assumed): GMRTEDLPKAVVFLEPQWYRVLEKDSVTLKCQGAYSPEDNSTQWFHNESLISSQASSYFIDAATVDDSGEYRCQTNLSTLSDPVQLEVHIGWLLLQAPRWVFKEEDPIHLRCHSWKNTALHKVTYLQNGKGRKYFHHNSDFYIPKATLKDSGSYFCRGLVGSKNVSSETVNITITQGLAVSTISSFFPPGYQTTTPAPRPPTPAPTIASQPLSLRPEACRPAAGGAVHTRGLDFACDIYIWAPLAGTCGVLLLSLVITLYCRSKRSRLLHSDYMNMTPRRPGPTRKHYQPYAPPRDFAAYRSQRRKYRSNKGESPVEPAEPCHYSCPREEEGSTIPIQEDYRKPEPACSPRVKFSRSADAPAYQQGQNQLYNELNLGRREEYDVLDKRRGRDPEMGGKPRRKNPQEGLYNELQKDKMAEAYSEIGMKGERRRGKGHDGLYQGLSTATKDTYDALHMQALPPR
ACTR variant SEQ ID NO: 63, sequence (chain, as listed by the source mutant limits assumed): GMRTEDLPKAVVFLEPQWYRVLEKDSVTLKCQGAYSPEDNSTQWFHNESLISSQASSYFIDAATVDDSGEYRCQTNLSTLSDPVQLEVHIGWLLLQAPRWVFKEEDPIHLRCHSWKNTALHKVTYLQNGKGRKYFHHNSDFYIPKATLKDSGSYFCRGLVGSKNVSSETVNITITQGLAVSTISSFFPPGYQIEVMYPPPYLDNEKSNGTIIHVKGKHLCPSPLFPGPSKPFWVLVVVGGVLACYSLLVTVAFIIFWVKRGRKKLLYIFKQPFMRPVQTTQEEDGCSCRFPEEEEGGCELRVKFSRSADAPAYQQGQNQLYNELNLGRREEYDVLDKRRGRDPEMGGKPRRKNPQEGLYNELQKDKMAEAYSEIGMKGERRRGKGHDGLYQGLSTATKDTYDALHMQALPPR
ACTR variant SEQ ID NO: 57, sequence (chain, as listed by the source mutant): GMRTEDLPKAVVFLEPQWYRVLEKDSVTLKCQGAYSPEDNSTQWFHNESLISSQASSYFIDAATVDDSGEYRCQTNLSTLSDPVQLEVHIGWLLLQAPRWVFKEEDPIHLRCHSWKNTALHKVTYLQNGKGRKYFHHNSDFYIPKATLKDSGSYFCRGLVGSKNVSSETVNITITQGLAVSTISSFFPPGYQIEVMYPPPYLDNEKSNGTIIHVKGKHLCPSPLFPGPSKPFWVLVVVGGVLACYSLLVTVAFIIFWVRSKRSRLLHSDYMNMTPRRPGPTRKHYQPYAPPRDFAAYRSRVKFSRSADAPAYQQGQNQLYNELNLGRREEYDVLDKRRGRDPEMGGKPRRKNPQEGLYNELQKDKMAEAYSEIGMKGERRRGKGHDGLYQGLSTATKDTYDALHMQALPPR
ACTR variant SEQ ID NO: 60, sequence (chain, as listed by the source mutant limits assumed): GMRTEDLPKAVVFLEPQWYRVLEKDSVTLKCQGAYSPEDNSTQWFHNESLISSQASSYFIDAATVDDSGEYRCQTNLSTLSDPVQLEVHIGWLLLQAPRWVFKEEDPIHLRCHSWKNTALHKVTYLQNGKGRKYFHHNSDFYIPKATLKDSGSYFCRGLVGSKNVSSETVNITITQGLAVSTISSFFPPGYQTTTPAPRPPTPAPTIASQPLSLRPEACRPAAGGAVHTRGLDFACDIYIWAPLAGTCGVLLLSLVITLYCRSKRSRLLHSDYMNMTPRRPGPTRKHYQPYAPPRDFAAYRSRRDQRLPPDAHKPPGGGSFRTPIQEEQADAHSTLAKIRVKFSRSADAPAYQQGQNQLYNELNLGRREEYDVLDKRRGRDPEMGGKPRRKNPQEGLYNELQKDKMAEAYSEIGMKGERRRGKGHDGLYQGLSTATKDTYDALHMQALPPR
ACTR variant SEQ ID NO: 10, sequence (chain, as listed by the source mutant limits assumed): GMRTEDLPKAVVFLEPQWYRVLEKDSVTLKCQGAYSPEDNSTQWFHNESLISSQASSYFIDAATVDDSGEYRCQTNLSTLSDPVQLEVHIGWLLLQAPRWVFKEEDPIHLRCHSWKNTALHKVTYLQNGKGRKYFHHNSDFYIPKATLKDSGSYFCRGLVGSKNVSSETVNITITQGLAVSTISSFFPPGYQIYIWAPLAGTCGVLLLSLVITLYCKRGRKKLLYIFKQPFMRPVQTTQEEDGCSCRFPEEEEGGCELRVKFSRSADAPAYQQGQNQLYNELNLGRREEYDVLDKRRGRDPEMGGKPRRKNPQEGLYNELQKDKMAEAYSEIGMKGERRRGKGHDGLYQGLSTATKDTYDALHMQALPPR
ACTR variant SEQ ID NO: 61, sequence (chain, as listed by the source mutant limits assumed): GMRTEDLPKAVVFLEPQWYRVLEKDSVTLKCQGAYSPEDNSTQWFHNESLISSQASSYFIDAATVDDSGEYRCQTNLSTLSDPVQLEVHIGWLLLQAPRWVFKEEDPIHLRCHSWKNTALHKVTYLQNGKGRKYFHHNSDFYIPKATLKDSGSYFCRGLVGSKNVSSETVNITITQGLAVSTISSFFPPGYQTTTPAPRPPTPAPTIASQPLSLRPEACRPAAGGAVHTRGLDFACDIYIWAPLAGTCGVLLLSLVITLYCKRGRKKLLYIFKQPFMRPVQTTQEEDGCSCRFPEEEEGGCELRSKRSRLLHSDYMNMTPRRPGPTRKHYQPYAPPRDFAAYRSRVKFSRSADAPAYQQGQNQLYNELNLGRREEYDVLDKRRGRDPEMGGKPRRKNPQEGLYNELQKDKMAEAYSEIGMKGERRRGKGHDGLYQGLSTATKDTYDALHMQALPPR
ACTR variant SEQ ID NO: 62, sequence (chain, as listed by the source mutant limits assumed): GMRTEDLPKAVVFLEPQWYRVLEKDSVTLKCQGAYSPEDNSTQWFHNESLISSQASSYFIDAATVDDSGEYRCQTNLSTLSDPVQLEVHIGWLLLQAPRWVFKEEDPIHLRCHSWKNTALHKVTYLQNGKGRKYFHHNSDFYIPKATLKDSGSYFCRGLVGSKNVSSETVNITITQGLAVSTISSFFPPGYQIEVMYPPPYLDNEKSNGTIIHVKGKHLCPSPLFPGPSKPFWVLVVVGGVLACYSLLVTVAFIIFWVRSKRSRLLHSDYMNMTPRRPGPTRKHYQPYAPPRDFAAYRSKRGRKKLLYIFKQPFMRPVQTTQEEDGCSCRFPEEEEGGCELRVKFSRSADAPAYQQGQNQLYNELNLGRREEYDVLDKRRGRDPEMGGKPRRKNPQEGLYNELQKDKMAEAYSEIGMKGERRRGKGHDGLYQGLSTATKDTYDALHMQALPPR

B1: humanized afucosylated (SEA) anti-BCMA antibody hSG16.17SEA (antibody, V domains shown)
VH: QVQLVQSGAEVKKPGASVKLSCKASGYTFTDYYIHWVRQAPGQGLEWIGYINPNSGYTNYAQKFQGRATMTADKSINTAYVELSRLRSDDTAVYFCTRYMWERVTGFFDFWGQGTMVTVSS
VL: DIQMTQSPSSVSASVGDRVTITCLASEDISDDLAWYQQKPGKAPKVLVYTTSSLQSGVPSRFSGSGSGTDFTLTISSLQPEDFATYFCQQTYKFPPTFGGGTKVEIKR
IFNγ Release (pg/mL), ACTR T cells + NCI-H929 Target Cells + hSG16.17SEA (1 µg/mL) [1]: 19800 pg/mL | IFNγ Release (pg/mL), ACTR T cells + U266B1 Target Cells + hSG16.17SEA (1 µg/mL) [1]: 7970 pg/mL | IL-2 Release (pg/mL), ACTR T cells + NCI-H929 Target Cells + hSG16.17SEA (1 µg/mL) [1]: 224 pg/mL | IL-2 Release (pg/mL), ACTR T cells + U266B1 Target Cells + hSG16.17SEA (1 µg/mL) [1]: 260 pg/mL | T-cell proliferation: fold increase in CD3+ cells at 1 µg/mL hSG16.17SEA relative to no antibody, NCI-H929 Target Cells [1]: 7.46 fold | T-cell proliferation: fold increase in CD3+ cells at 1 µg/mL hSG16.17SEA relative to no antibody, U266B1 Target Cells [1]: 1.62 fold | IFNγ Release (pg/mL), ACTR T cells + NCI-H929 Target Cells + hSG16.17SEA (1 µg/mL) [2]: 16700 pg/mL | IFNγ Release (pg/mL), ACTR T cells + U266B1 Target Cells + hSG16.17SEA (1 µg/mL) [2]: 12600 pg/mL | IL-2 Release (pg/mL), ACTR T cells + NCI-H929 Target Cells + hSG16.17SEA (1 µg/mL) [2]: 373 pg/mL | IL-2 Release (pg/mL), ACTR T cells + U266B1 Target Cells + hSG16.17SEA (1 µg/mL) [2]: 187 pg/mL | T-cell proliferation: fold increase in CD3+ cells at 1 µg/mL hSG16.17SEA relative to no antibody, NCI-H929 Target Cells [2]: 35.5 fold | T-cell proliferation: fold increase in CD3+ cells at 1 µg/mL hSG16.17SEA relative to no antibody, U266B1 Target Cells [2]: 49.5 fold | IFNγ Release (pg/mL), ACTR T cells + NCI-H929 Target Cells + hSG16.17SEA (1 µg/mL) [3]: 16800 pg/mL | IFNγ Release (pg/mL), ACTR T cells + U266B1 Target Cells + hSG16.17SEA (1 µg/mL) [3]: 12700 pg/mL | IL-2 Release (pg/mL), ACTR T cells + NCI-H929 Target Cells + hSG16.17SEA (1 µg/mL) [3]: 420 pg/mL | IL-2 Release (pg/mL), ACTR T cells + U266B1 Target Cells + hSG16.17SEA (1 µg/mL) [3]: 17.8 pg/mL | T-cell proliferation: fold increase in CD3+ cells at 1 µg/mL hSG16.17SEA relative to no antibody, NCI-H929 Target Cells [3]: 9.76 fold | T-cell proliferation: fold increase in CD3+ cells at 1 µg/mL hSG16.17SEA relative to no antibody, U266B1 Target Cells [3]: 4.75 fold | IFNγ Release (pg/mL), ACTR T cells + NCI-H929 Target Cells + hSG16.17SEA (1 µg/mL) [4]: 17100 pg/mL | IFNγ Release (pg/mL), ACTR T cells + U266B1 Target Cells + hSG16.17SEA (1 µg/mL) [4]: 12600 pg/mL | IL-2 Release (pg/mL), ACTR T cells + NCI-H929 Target Cells + hSG16.17SEA (1 µg/mL) [4]: 46.6 pg/mL | IL-2 Release (pg/mL), ACTR T cells + U266B1 Target Cells + hSG16.17SEA (1 µg/mL) [4]: 214 pg/mL | T-cell proliferation: fold increase in CD3+ cells at 1 µg/mL hSG16.17SEA relative to no antibody, NCI-H929 Target Cells [4]: 11.5 fold | T-cell proliferation: fold increase in CD3+ cells at 1 µg/mL hSG16.17SEA relative to no antibody, U266B1 Target Cells [4]: 6.91 fold | IFNγ Release (pg/mL), ACTR T cells + NCI-H929 Target Cells + hSG16.17SEA (1 µg/mL) [5]: 18600 pg/mL | IFNγ Release (pg/mL), ACTR T cells + U266B1 Target Cells + hSG16.17SEA (1 µg/mL) [5]: 14400 pg/mL | IL-2 Release (pg/mL), ACTR T cells + NCI-H929 Target Cells + hSG16.17SEA (1 µg/mL) [5]: 258 pg/mL | IL-2 Release (pg/mL), ACTR T cells + U266B1 Target Cells + hSG16.17SEA (1 µg/mL) [5]: 48.6 pg/mL | T-cell proliferation: fold increase in CD3+ cells at 1 µg/mL hSG16.17SEA relative to no antibody, NCI-H929 Target Cells [5]: 18.3 fold | T-cell proliferation: fold increase in CD3+ cells at 1 µg/mL hSG16.17SEA relative to no antibody, U266B1 Target Cells [5]: 11.7 fold | IFNγ Release (pg/mL), ACTR T cells + NCI-H929 Target Cells + hSG16.17SEA (1 µg/mL) [6]: 22900 pg/mL | IFNγ Release (pg/mL), ACTR T cells + U266B1 Target Cells + hSG16.17SEA (1 µg/mL) [6]: 11600 pg/mL | IL-2 Release (pg/mL), ACTR T cells + NCI-H929 Target Cells + hSG16.17SEA (1 µg/mL) [6]: 178 pg/mL | IL-2 Release (pg/mL), ACTR T cells + U266B1 Target Cells + hSG16.17SEA (1 µg/mL) [6]: 132 pg/mL | T-cell proliferation: fold increase in CD3+ cells at 1 µg/mL hSG16.17SEA relative to no antibody, NCI-H929 Target Cells [6]: 15.8 fold | T-cell proliferation: fold increase in CD3+ cells at 1 µg/mL hSG16.17SEA relative to no antibody, U266B1 Target Cells [6]: 8.72 fold | IFNγ Release (pg/mL), ACTR T cells + NCI-H929 Target Cells + hSG16.17SEA (1 µg/mL) [7]: 14500 pg/mL | IFNγ Release (pg/mL), ACTR T cells + U266B1 Target Cells + hSG16.17SEA (1 µg/mL) [7]: 7580 pg/mL | IL-2 Release (pg/mL), ACTR T cells + NCI-H929 Target Cells + hSG16.17SEA (1 µg/mL) [7]: 119 pg/mL | IL-2 Release (pg/mL), ACTR T cells + U266B1 Target Cells + hSG16.17SEA (1 µg/mL) [7]: 12.3 pg/mL | T-cell proliferation: fold increase in CD3+ cells at 1 µg/mL hSG16.17SEA relative to no antibody, NCI-H929 Target Cells [7]: 6.24 fold | T-cell proliferation: fold increase in CD3+ cells at 1 µg/mL hSG16.17SEA relative to no antibody, U266B1 Target Cells [7]: 2.87 fold | IFNγ Release (pg/mL), ACTR T cells + NCI-H929 Target Cells + hSG16.17SEA (1 µg/mL) [8]: 16000 pg/mL | IFNγ Release (pg/mL), ACTR T cells + U266B1 Target Cells + hSG16.17SEA (1 µg/mL) [8]: 10400 pg/mL | IL-2 Release (pg/mL), ACTR T cells + NCI-H929 Target Cells + hSG16.17SEA (1 µg/mL) [8]: 66.5 pg/mL | IL-2 Release (pg/mL), ACTR T cells + U266B1 Target Cells + hSG16.17SEA (1 µg/mL) [8]: 1.6 pg/mL | T-cell proliferation: fold increase in CD3+ cells at 1 µg/mL hSG16.17SEA relative to no antibody, NCI-H929 Target Cells [8]: 3.76 fold | T-cell proliferation: fold increase in CD3+ cells at 1 µg/mL hSG16.17SEA relative to no antibody, U266B1 Target Cells [8]: 2.82 fold | IFNγ Release (pg/mL), ACTR T cells + NCI-H929 Target Cells + hSG16.17SEA (1 µg/mL) [9]: 6250 pg/mL | IFNγ Release (pg/mL), ACTR T cells + U266B1 Target Cells + hSG16.17SEA (1 µg/mL) [9]: 13700 pg/mL | IL-2 Release (pg/mL), ACTR T cells + NCI-H929 Target Cells + hSG16.17SEA (1 µg/mL) [9]: 262 pg/mL | IL-2 Release (pg/mL), ACTR T cells + U266B1 Target Cells + hSG16.17SEA (1 µg/mL) [9]: 34.8 pg/mL | T-cell proliferation: fold increase in CD3+ cells at 1 µg/mL hSG16.17SEA relative to no antibody, NCI-H929 Target Cells [9]: 80.1 fold | T-cell proliferation: fold increase in CD3+ cells at 1 µg/mL hSG16.17SEA relative to no antibody, U266B1 Target Cells [9]: 52 fold

From patent US20190381171A1, “CO-USE OF ANTI-BCMA ANTIBODY AND ANTIBODY-COUPLED T CELL RECEPTOR (ACTR) IN CANCER THERAPY AND B CELL DISORDERS” (UNUM THERAPEUTICS INC., priority 2017, published 2019)
